From paper PMC3977970

Molecular target: T1, GST-PTPMT1 (human) (UniProt Q8WUK0)
T1 sequence: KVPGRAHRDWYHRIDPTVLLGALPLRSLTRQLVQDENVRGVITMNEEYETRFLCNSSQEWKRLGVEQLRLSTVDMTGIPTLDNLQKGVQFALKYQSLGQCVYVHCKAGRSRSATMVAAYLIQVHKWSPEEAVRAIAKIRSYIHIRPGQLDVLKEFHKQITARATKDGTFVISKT

- reduction of PTPMT1 phosphatase activity towards OMFP, compared to FLAG protein alone; MK-STYX incubated with GST-PTPMT1 at 1:1 (51%) to 2:1 (60%) mass ratio: 60%
Substance: FLAG-MK-STYX (from UniProt Q9Y6J8-1 2-313) (natural protein)
